Assays:
Assay in all cases: cell-based or functional assay
[1] = molecular target: HIV-1 Env pseudovirus 231966.c02 (HIV-1)
[2] = molecular target: HIV-1 Env pseudovirus 235-47 (HIV-1)
[3] = molecular target: HIV-1 Env pseudovirus 3016.v5.c45 (HIV-1)
[4] = molecular target: HIV-1 Env pseudovirus 6952.v1.c20 (HIV-1)
[5] = molecular target: HIV-1 Env pseudovirus 89-F1_2_25 (HIV-1)
[6] = molecular target: HIV-1 Env pseudovirus BJOX025000.01.1 (HIV-1)
[7] = molecular target: HIV-1 Env pseudovirus C1080.c03 (HIV-1)
[8] = molecular target: HIV-1 Env pseudovirus P0402_c2_11 (HIV-1)
[9] = molecular target: HIV-1 Env pseudovirus P1981_C5_3 (HIV-1)
[10] = molecular target: HIV-1 Env pseudovirus T250-4 (HIV-1)
[11] = molecular target: HIV-1 Env pseudovirus T251-18 (HIV-1)
[12] = molecular target: HIV-1 Env pseudovirus X2131_C1_B5 (HIV-1)

| Substance | IC50 (Titer in TZM.bl cells) [1] | IC80 (Titer in TZM.bl cells) [1] | IC50 (Titer in TZM.bl cells) [2] | IC80 (Titer in TZM.bl cells) [2] | IC50 (Titer in TZM.bl cells) [3] | IC80 (Titer in TZM.bl cells) [3] | IC50 (Titer in TZM.bl cells) [4] | IC80 (Titer in TZM.bl cells) [4] | IC50 (Titer in TZM.bl cells) [5] | IC80 (Titer in TZM.bl cells) [5] | IC50 (Titer in TZM.bl cells) [6] | IC80 (Titer in TZM.bl cells) [6] | IC50 (Titer in TZM.bl cells) [7] | IC80 (Titer in TZM.bl cells) [7] | IC50 (Titer in TZM.bl cells) [8] | IC80 (Titer in TZM.bl cells) [8] | IC50 (Titer in TZM.bl cells) [9] | IC80 (Titer in TZM.bl cells) [9] | IC50 (Titer in TZM.bl cells) [10] | IC80 (Titer in TZM.bl cells) [10] | also measured |
| --- | --- | --- | --- | --- | --- | --- | --- | --- | --- | --- | --- | --- | --- | --- | --- | --- | --- | --- | --- | --- | --- |
| VRC07 (antibody) | 0.105 µg/mL | 0.471 µg/mL | 0.024 µg/mL | 0.075 µg/mL | 0.095 µg/mL | 0.392 µg/mL | 0.064 µg/mL | 0.181 µg/mL | > 50 µg/mL | > 50 µg/mL | 0.279 µg/mL | 2.29 µg/mL | 2.03 µg/mL | 8.25 µg/mL | 0.085 µg/mL | 0.422 µg/mL | 0.213 µg/mL | 0.609 µg/mL | > 50 µg/mL | > 50 µg/mL | IC50 (Titer in TZM.bl cells) [11]: 1.32 µg/mL; IC80 (Titer in TZM.bl cells) [11]: 6.49 µg/mL; IC50 (Titer in TZM.bl cells) [12]: 0.219 µg/mL; IC80 (Titer in TZM.bl cells) [12]: 1.03 µg/mL |
| 3BNC117 (antibody) | 0.29 µg/mL | 2.37 µg/mL | 0.03 µg/mL | 0.12 µg/mL | 1.38 µg/mL | > 30 µg/mL | 0.15 µg/mL | 0.75 µg/mL | > 50 µg/mL | > 50 µg/mL | 0.05 µg/mL | 0.2 µg/mL | 0.25 µg/mL | 1.73 µg/mL | 0.06 µg/mL | 0.38 µg/mL | 0.74 µg/mL | 3.62 µg/mL | > 15 µg/mL | > 15 µg/mL | IC50 (Titer in TZM.bl cells) [11]: 0.26 µg/mL; IC80 (Titer in TZM.bl cells) [11]: 0.82 µg/mL; IC50 (Titer in TZM.bl cells) [12]: 0.43 µg/mL; IC80 (Titer in TZM.bl cells) [12]: 1.96 µg/mL |
| 8ANC195 (antibody) | 0.54 µg/mL | 2.98 µg/mL | > 50 µg/mL | > 50 µg/mL | 0.87 µg/mL | > 50 µg/mL | 1.38 µg/mL | 7.22 µg/mL | > 50 µg/mL | > 50 µg/mL | 4.96 µg/mL | > 50 µg/mL | 0.17 µg/mL | 1.12 µg/mL | 0.62 µg/mL | 6.35 µg/mL | 0.14 µg/mL | 1.15 µg/mL | > 50 µg/mL | > 50 µg/mL | IC50 (Titer in TZM.bl cells) [11]: 1.51 µg/mL; IC80 (Titer in TZM.bl cells) [11]: 1.51 µg/mL; IC50 (Titer in TZM.bl cells) [12]: 3.47 µg/mL; IC80 (Titer in TZM.bl cells) [12]: > 50 µg/mL |

— patent publication US20240117018A1
